Key:
[1] = target: T1, Csx19 subunit of the Synechocystis sp. PCC 6803 Type III-Dv complex (Synechocystis sp. PCC 6803); assay: cryo-EM structure of the binary complex, 2.5 Å
T1 construct: Untagged, co-expressed from pPF2434 in E. coli; one copy in the complex
T1 chain: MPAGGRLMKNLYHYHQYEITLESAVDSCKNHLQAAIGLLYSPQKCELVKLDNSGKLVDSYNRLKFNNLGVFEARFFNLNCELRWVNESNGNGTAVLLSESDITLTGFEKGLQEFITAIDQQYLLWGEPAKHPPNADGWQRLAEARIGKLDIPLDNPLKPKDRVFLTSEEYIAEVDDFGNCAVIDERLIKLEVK
Procedure: Fully assembled Type III-D binary complex was diluted to a concentration of 0.3 mg/ml in SEC buffer before 2.5 μl of sample was added to a quantifoil 1.2/1.3 grid that was glow discharged for 1 minute. Sample was applied to the grid in an FEI Vitrobot MarkIV kept at 100% humidity and 4° C. before blotting for 5.5 seconds with a force of 0. For the ssRNA target-bound complex, non-self ssRNA was mixed with the binary complex with a 2:1 molar ratio of RNA:Binary complex in SEC buffer to a final protein concentration of 0.3 mg/mL. Grids of the target-bound complex were frozen identical to that of the binary complex. Both grids were loaded to an FEI Titan Krios (Sauer Structural Biology Lab, University of Texas at Austin) operating at 300 kV. Images were taken at a pixel size of 0.81 Å/pixel with a dose rate of 10.6 e⁻/pixel/s for 5 seconds using a Gatan K3 direct electron detector, giving a final dosage of 80.5 e⁻/Å². Data collection was automated using SerialEM using a defocus range of −1.2 to −2.2 μm.
To delineate the architecture of this Type III-Dv effector, we used cryo-EM to determine a 2.5-Å resolution structure of the complex containing the nt crRNA (FIG. 1e,f, FIG. 8). To gain preliminary insights, we generated initial models of each subunit using Alphafold 2. […]

[2] = target: T2, Cas6-2a of Synechocystis sp. PCC 6803 (Synechocystis sp. PCC 6803); assay: metal affinity (His6-Cas10) and size-exclusion co-purification from E. coli; SDS-PAGE and mass spectrometry
T2 construct: The Results say cas6-2a was cloned and expressed with the operon
T2 chain: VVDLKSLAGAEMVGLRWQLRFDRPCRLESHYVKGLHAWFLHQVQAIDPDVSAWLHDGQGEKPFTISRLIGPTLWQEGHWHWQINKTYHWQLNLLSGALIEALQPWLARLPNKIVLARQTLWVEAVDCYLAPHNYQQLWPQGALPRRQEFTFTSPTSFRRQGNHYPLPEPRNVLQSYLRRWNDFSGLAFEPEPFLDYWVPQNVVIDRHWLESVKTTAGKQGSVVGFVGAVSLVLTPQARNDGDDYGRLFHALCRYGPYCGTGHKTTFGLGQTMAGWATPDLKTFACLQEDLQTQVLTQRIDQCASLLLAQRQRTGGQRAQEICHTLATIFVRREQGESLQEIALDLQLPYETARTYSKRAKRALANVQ
Procedure: The sample was applied to a second HisTrap column; however, due to inefficient TEV cleavage, the complex unexpectedly bound the column and eluted with high imidazole. The complex was further purified by size exclusion chromatography (SEC) on a HiLoad 16/600 Superdex 200 column (GE Healthcare) equilibrated in SEC Buffer). Mutant Type III-Dv complexes were similarly expressed and purified, except TEV protease was omitted. Purified complexes were typically concentrated to 1.5 mg/ml using a centrifugal concentrator (Amicon; 100 kDa MWCO), aliquoted, and stored at −80° C.
Denaturing liquid chromatography mass spectrometry (LC-MS) was performed on a Dionex UltiMate 3000 nanoLC system coupled to a Thermo Orbitrap Fusion Lumos Tribrid mass spectrometer (San Jose, Ca). The trap column (3 cm) and analytical column (30 cm) were packed in-house with polymer reverse-phase (PLRP) packing material. Approximately 80 ng of the CRISPR complex were injected and subjected to reverse-phase chromatography, utilizing water with 0.1% formic acid as mobile phase A (MPA), and acetonitrile with 0.1% formic acid as mobile phase B (MPB). Forward trapping occurred for 5 minutes at 2% MPB at a flow rate of 5 μL/min at the trap column. Elution onto the analytical column (at 0.3 μL/min) occurred by increasing MPB to 10% over a 3-minute gradient followed by an increase to 35% MPB over 32 minutes. […]

binding result [1]: binds | binding result [2]: no binding
B1: Cas10 subunit of the Synechocystis sp. PCC 6803 Type III-Dv CRISPR-Cas complex, with N-terminal His6 tag and TEV site (other)
chain: MFLVLIETSGNQHFIFSTNKLRENIGASELTYLATTEILFQGVDRVFQTNYYDQWSDTNSLNFLADSKLNPAIDDPKNNADIEILLATSGKAIALVKEEGKAKQLIKEVTKQALINAPGLEIGGIYVNCNWQDKLGVAKAVKEAHKQFEVNRAKRAGANGRFLRLPIAAGCSVSELPASDFDYNADGDKIPVSTVSKVKRETAKSAKKRLRSVDGRLVNDLAQLEKSFDELDWLAVVHADGNGLGQILLSLEKYIGEQTNRNYIDKYRRLSLALDNCTINAFKMAIAVFKEDSKKIDLPIVPLILGGDDLTVICRGDYALEFTREFLEAFEGQTETHDDIKVIAQKAFGVDRLSACAGISIIKPHFPFSVAYTLAERLIKSAKEVKQKVTVTNSSPITPFPCSAIDFHILYDSSGIDFDRIREKLRPEDNTELYNRPYVVTAAENLSQAQGYEWSQAHSLQTLADRVSYLRSEDGEGKSALPSSQSHALRTALYLEKNEADAQYSLISQRYKILKNFAEDGENKSLFHLENGKYVTRFLDALDAKDFFANANHKNQGE
notes: Whole gene amplified from Synechocystis genomic DNA and co-expressed in E. coli from pPF2434; The complex also holds a 37-nt crRNA; also called His6-TEV-Cas10; N-His6-tagged Cas10; not shown: TEV cleavage was inefficient, so

Source: US20250361544A1, “TYPE III-D CRISPR-CAS SYSTEM AND USES THEREOF” (BOARD OF REGENTS, THE UNIVERSITY OF TEXAS SYSTEM, published 2025)
